Data on three molecules can be found in patent publication US20050055741, “Plant transcriptional repressor, proteic nuclear factors binding thereto, and uses thereof” (published 2005).

Data set [1] addresses T1, SEBF (affinity purified, 29 and 28 kD bands) (Solanum tuberosum).
T1 chain: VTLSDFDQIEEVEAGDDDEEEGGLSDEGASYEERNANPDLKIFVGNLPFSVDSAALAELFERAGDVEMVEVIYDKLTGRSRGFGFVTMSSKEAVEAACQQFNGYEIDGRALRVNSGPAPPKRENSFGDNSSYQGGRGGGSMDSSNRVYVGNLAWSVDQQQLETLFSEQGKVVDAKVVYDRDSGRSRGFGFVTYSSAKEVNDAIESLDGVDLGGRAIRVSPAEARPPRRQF
As to the kind of experiment: southwestern; 29 and 28 kD bands each bind. Particulars: tags: none; label: 32P. On the procedure: FIG. 4 is a picture of a gel showing the purification of SEBF. Coomassie staining of proteins from each step of the purification of SEBF (lanes 1 through 4). The crude nuclear extract (Crude; lane 1) was loaded on a Q-Sepharose™ column. SEBF was eluted at 400 mM NaCl (Q-seph; lane 2) before two rounds of affinity purification (Aff.1, Aff.2; lane 3, lane 4). […] Arrows indicate the two purified bands. Molecular weight markers are indicated on the left.
Both of these proteins were subjected to N-terminal sequence analysis.

In data set [2] the target is T2, SEBF (recombinant) (Solanum tuberosum).
T2 chain: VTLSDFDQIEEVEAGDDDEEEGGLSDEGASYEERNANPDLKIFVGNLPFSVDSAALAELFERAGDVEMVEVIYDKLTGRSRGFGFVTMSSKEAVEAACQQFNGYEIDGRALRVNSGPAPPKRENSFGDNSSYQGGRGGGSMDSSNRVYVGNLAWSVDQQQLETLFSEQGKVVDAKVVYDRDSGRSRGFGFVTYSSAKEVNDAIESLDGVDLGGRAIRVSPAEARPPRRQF
Briefly: EMSA; 10 ng recombinant SEBF. The following applies: tags: GST fusion expressed in E. coli BL21; GST cleaved with thrombin; label: 32P. The source says: (§1) FIGS. 2A, 2B, 2C and 2D show mutational analysis of potato silencing element (SE). FIG. 2A: Schematic representation of the reporter constructs and mutant oligonucleotides used in this study. Reporter constructs contain the PR-10a promoter region from −135 to +136 fused to the bacterial gene uidA encoding […] (GUS). The position of the elicitor response element (ERE), the silencing element (SE) and the TATA box are shown (TATA). The transcriptional start site is indicated by an arrow. The common sequence between the wild-type (WT; SEQ ID NO:45) and mutant oligonucleotides m1 to m5 (SEQ ID NOs:1 to 5) is indicated by dashed lines, and mutated nucleotides are represented by lowercase letters. FIG. 2B: EMSA studies using 10 μg of crude potato tuber nuclear preparation and 20,000 CPM of the ³²P labeled single-stranded CS oligonucleotides presented in FIG. 2A. FIG. 2C: EMSA studies using 10 ng of purified recombinant SEBF and 20,000 CPM of the ³²P labeled single-stranded CS oligonucleotides presented in FIG. 2A. FIG. 2D: The sequence from −52 to −27 of the PR-10a promoter fused to the uidA gene was replaced by the sequences presented in FIG. 2A. The resulting plasmids were electroporated in potato leaf protoplasts and the GUS activity was measured. The histogram represents fold activity to wild type (WT=1). […]
Background: Mobility shift assays separate free from complexed probe on a gel.

Data set [3] deals with T2, SEBF (recombinant). Briefly: EMSA; specificity stated similar to native SEBF. Particulars: tags: GST fusion expressed in E. coli BL21; GST cleaved with thrombin; label: 32P.
Description: as §1

Data set [4] deals with T2, SEBF (recombinant). Briefly: EMSA; specificity similar to native SEBF. Particulars: tags: GST fusion expressed in E. coli BL21; GST cleaved with thrombin; label: 32P.
Description: as §1

TCTAGACTGTCACTTGTTTTTTTTA (ssDNA) [PR-10a SE coding strand WT]: the binding result (in data set [1]; in the data set with SEBF (recombinant) [2]) was “binds” throughout. For CATGGACTGTCACTTGTTTTTTTTA (ssDNA) [SE m2], the binding result with SEBF (recombinant) [3] is on record as “binds”. TCTAGATCGAATTCCGCTCGACCGG (ssDNA) [SE m1]: in the data set with SEBF (recombinant) [4], the binding result is reported as “no binding”.
